Results taken from PMC10145791.

Legend:
VEGF-A165 (Homo sapiens) = VEGF-A165 (Homo sapiens) (UniProt P15692); conditions: cited from earlier work
[1] = molecular target: recombinant human neuropilin-1 (human) (UniProt O14786); assay: SPR; SPRi, stage 1: mixtures of NRP-1 (1 ng/mL) with VEGF-A (0.01, 0.10, 1.00, 10.0 ng/mL) dropped onto the immobilised mouse monoclonal anti-NRP-1 antibody (200 ng/mL on cysteamine/gold); read-out is the free NRP-1 that the antibody captures (recovery %); pH 7.4, 10 min

Row | recovery of free NRP-1 (1 ng/mL added) on the antibody with 0.01 ng/mL VEGF-A [1] [%] | recovery of free NRP-1 (1 ng/mL added) on the antibody with 0.10 ng/mL VEGF-A [1] [%] | recovery of free NRP-1 (1 ng/mL added) on the antibody with 1.00 ng/mL VEGF-A [1] [%] | recovery of free NRP-1 (1 ng/mL added) on the antibody with 10.0 ng/mL VEGF-A [1] [%] | Substance | Kd (VEGF-A165 (Homo sapiens)) [nM]
1 |  |  |  |  | neuropilin-1 soluble (from UniProt O14786) | 7.5
2 | 98 | 85 | 36 | < 1 | vascular endothelial growth factor VEGFA (from UniProt P15692 1-395) (ligand) | 
